{"source": "paper PMC11514473", "about": "“The transition state for coupled folding and binding of a disordered DNA binding domain resembles the unbound state” (Nucleic Acids Research, 2024)", "target": "T1, 285bZIP E299A/E306A (human, UniProt P16220-1 285-339, C300S;C310S;C337S;E299A;E306A)", "T1 sequence": "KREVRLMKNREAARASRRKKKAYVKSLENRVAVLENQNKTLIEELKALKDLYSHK", "test": "stopped-flow fluorescence (koff/kon); 10 mM Mg2+; 10 mM MES pH 6.5, 150 mM NaCl, 10 mM MgCl2, 0.05% Tween-20, 25 C; NMR: 10 mM Tris-d11, 150 mM NaCl, 10 mM MgCl2, 1 mM NaN3, 5% D2O (NOE at 25 C)", "conditions": "protein: recombinant; tags: extra N-terminal Gly; chain copies: 2; label: 5' Alexa Fluor 488; hairpin (self-annealing, 11 bp stem, CCCC loop)"}
{"binder": "CCTGACGTCAGCCCCCTGACGTCAGG (structured_DNA)", "note": "[AlexaFluor488-CREh]", "values": [{"measurement": "Kd", "value": "0.0415 ± 0.0008", "unit": "nM"}]}
